Laboratory results reported in the DeepSol protein solubility set.

Experiment: soluble on expression in E. coli; label from the status in PepcDB or PDB records

Sequence	soluble on expression in E. coli
MKLTGQAIDGFLRKPDPKIRCVLVYGPDEGLVRERLEQLARTVVADPKDPFRITDLSGDDLRADPARLADEAAALAFGGGRRLVRLRQMTDQHAPRLKAFVEAPVGEALVLVQGGDLTARSALRKLFEGASAAAALPCYADEGRSLETLVRATLAEARLAAAPEVIDYLVANLGGDRGVSRSELAKLVTYCGKATSVSLDDALACVGDSAQIGLDMLTNAVAEGDSATALRALDRLGQEGMATVALLRGLTRHFTRLHLVAGLIAGGTSVDQALAALKPPVMFKLAPRFRSQVQRWSAERLAQALDLLLDAEIDAKSSGLPERALVERLLLRLARGAKTASRLEHHHHHH	not soluble
MKLVICIVQDDDAGELIDVLTDKGLRVTKLATTGGFLKAGNTTLMIGVEEKAVDGVIETIEDVCKTRQQVVTSPSPVAGSTGVYVPYPIDVEVGGATIFVVDVDKFIKI	not soluble
MKMADAKQKRNEQLKRWIGSETDLEPPVVKRKKTKVKFDDGAVFLAACSSGDTEEVLRLLERGADINYANVDGLTALHQACIDDNVDMVKFLVENGANINQPDNEGWIPLHAAASCGYLDIAEYLISQGAHVGAVNSEGDTPLDIAEEEAMEELLQNEVNRQGVDIEAARKEEERIMLRDARQWLNSGHINDVRHAKSGGTALHVAAAKGYTEVLKLLIQARYDVNIKDYDGWTPLHAAAHWGKEEACRILVENLCDMEAVNKVGQTAFDVADEDILGYLEELQKKQNLLHSEKREKKS	soluble
MKMMPSKLQKNKQRLRNDPLNQNKGKPDLNTTLPIRQTASIFKQPVTKVTNHPSNKVKSDPQRMNEQPRQLFWEKRLQGLSASDVTEQIIKTMELPKGLQGVGPGSNDETLLSAVASALHTSSAPITGQVSAAVEKNPAVWLNTSQPLCKAFIVTDEDIRKQEERVQQVRKKLEEALMADILSRAADTEEMDIEMDSGDEALEHHHHHH	soluble
MKMSELEKMLKGEHFDGASAEIEALRSQAGRLKLEINQSLDEAERYALQRELFGHLGHKSCVQPPFHCEFGKTIRIGDHTFINMNVVMLDGAPITIGDHVLIGPSTQFYTASHSLDYRRRQAWETICKPIVIEDDVWIGGNVVINQGVTIGARSVVAANSVVNQDVPPDTLVGGTPARILRSLKDPAESMAE	not soluble
MKMSTKGRYGLRAMLDIAVNSKGDIVSVKSIAERQNISESYLEQVFSILRKAAIVKSIKGAQGGYVLADDPSNITVGKILRTLEGNLNVVDIDDRDSEVSKEEKCINEFVWNKINKSIDKVVDNITLGDLLREYQKLEDNSSVMYYI	soluble
MKNAFFVTASIACGKSTFIEIANSLGFKSISADKIAHKILDENALELEKIFSPFSLKNLLKKEKKIDRKILGEIVFNNKEAKKILENFTHPKIRAKILEQMQILDKENKAFFVEIPLFFESGAYENLGKVIVIYTPKELSLKRIMQRDKLSLEAAKARLDSQIDIEEKLKKADFIIKNTNSYADFRQECVKVIQEISKGNM	not soluble
MKNLERLFAEKLLKIKAIKLQPANPFTWASGWKSPFYCDNRKTLSYPSLRNFVKIEITRLILERFGQVDAIAGVATGAIPQGALVADALNLPFVYVRSTPKDHGLENLIEGELRPGMKVVVVEDLISTGGSSLKAVEAIRRDGCEVIGMVAAYTYGFPVAEEAFKNAKVPLVTLTNYEAVLDVALRTGYIEEEDIATLNDWRKDPAHWDAGK	soluble
MKNLPISIGRIVMQGGHVNFQDQFIQPNYRAYLTDLAGRIGPLNPRKTGEVDIRGAVDKTAPLKISGSVDAFGRELNLDITASAKGIDMPTFSPYSGKYIGYAIEKGKLSVDVHYHVEHGELTAENSIFLDQLTFGEKIESPDAVSIPVNLALALLEHHHHHH	not soluble
MKNNLPIIALDFASAEETLAFLAPFQQEPLFVKVGMELFYQEGPSIVKQLKERNCELFLDLKLHDIPTTVNKAMKRLASLGVDLVNVHAAGGKKMMQAALEGLEEGTPAGKKRPSLIAVTQLTSTSEQIMKDELLIEKSLIDTVVHYSKQAEESGLDGVVCSVHEAKAIYQAVSPSFLTVTPGIRMSEDAANDQVRVATPAIAREKGSSAIVVGRSITKAEDPVKAYKAVRLEWEGIKS	soluble
MKNSFQTLKTLTTKSGTYGYYDLQELERKGVAEVSRLPFSIRVMLESLLRNEDGYQVTREDIEALARWRPDPGEINVPLKLARVILQDFTGVPAVVDLAAMRDAIKAKGGDPKRINPVVPADLVIDHSVQVDAFGTAYAFFYNVEKEYERNRERYLLLKWAQNALENFRVVPPGTGIVHQVNIEYLTKVVMTGKRDGLTLAFPDSLVGTDSHTTMVNGLGVLGWGVGGIEAEAVMLGQPYYMLAPRVVGFKLYGELPEGATATDLVLTVTEMLRKHGVVGKFVEFYGPGVAKLSTPDRATIANMAPEYGATMGFFPVDEETLNYLRQTGRPEELVELVEAYTKAVGLFRTPEAEEKVQYSEYLELDLSAVEPSLAGPKRPQDRVPLKEVKKSFLAHLTKPVKERGFGLSEDQLQRKVLVKRRDEEFELTHGSVVIAAITSCTNTSNPSVMLGAGLLAKKAVEAGLDRKPWVKTSLAPGSKVVTDYLEMSGLMPFLEALGFHLVGYGCTTCIGNSGPLPEDIAKAVEEGNLVVAAVLSGNRNFEGRINPHVKANYLASPMLVVAYALAGRMDIDFTTEPLGFDPNGKPIYLKDIWPSMEEIREAIRKTLDPELFKKEYSKVFEGDERWQALPAPTGELYQWDPESTYIQNPPFFEDLGERKVEDIRGARVLLVLGDSVTTDHISPAGAIPVKSPAGQYLISKGVKPEDFNSYGSRRGNHEVMMRGTFANIRIKNLMLDGIEGGYAKKLPEGDVDFVYNVAMRYKAEGTPLLVIAGKEYGTGSSRDWAAKGTYLLGIRAVLAESFERIHRSNLVGMGVLPLEFLPGENRETLGLTGYEVYDILGLEDLKPRKLVDIVARREDGSEVRFQAIARLDTPVEVDYYKNGGILQTVLLNMLKEAKATE	soluble
MKPIIVKKGDIRRLLKESGEIDGNDGRISVAAHILYQFGDRIVFVKAYENEDIDLKIKNRKNDYRYIKVIASQNGEFHIMDLPIGDRRIGSETLYGLIMASETFGTRLRNEILNMISFEMKRRNSIWILVDKDSHAYYPFTTHSITEIILHDVEYRFERGLIDRNLEIRVPVQFIYNYWQRYLKAKNRTPGEVWASMILQ	not soluble
MKPKDFCTAENWAENLSALGYLAGWRFVRMLPLPIARRVFDLGADLASKSGKGMGQLRANLARVVGAENVTQALVKQATRSYARYWLEAFRLPAIARDPELLARLRKGTVGLDLLDESLAAGKGVVLTLPHSGNWDMAGAFLISHHGQFTTVAERVKPERLFEAFVEFRESLGFEVLPLTGGERPPFEKLKERLTSGGIVCLLGERDLRHSGVETTFFGEKTSMPAGPAQLAIETGAALHVVHPWFDDDGWGLSVSDAVTVDNLSDTVQRIAHLFMANITAHPADWHMLQPLWFGDLDPERLKRSREQTNVHKPVALQEDN	not soluble
MKPKETVCFNIKYSWHAISRMYNERASKYGTTAAVGFILLNIDVEKGTAATHIGPALGMEATSLSRVFNTMEQDGLIERRNDSSDKRKVTIFLTALGKDKRQIAKDFVLDFNNKVREQVSESKLNTFFEVLHEIQSIIDNKNTSLT	soluble
MKPKTLSPILTAKGVRLAIAVGRFNERVTKLLLEGALEAYARLGGDPAEVLVAWVPGSFELPLVAKRLAQRPDVDAVVALGAVIRGETPHFEYVAGQAASGLMQAMLQTEKPIVFGVLTTNTPEEAQERAGGKAGNKGAEAVFTAIEMVRLLEAISR	soluble
MKPLSGLKVLDLSRVLAGPLCTMILADLGAEVVKVEPPWGDETRGWGPPFVEGESAYFLAVNRGKRSVALDLKRPEGQEAVRRLAQKADVLVENFKTGDLRRFGLDYESLKPLNPRLIYLSITGFGHTGPRAKEPGYDAALQGYTGIMSVTGEPEGPPMKVGVAWIDVMTGMMGALAVLAALWERERSGLGQHIDLSLFDVGLFALANLGESFLLTGKPPKRLGNAHAQIVPYGAFPAEDGWLVLAVGNDEQFARLCQVVGLPDLARRFPTNALRVEHREEVVEALSRALKARSRAHWLERFKEAGVPAAPVNDLKEAFQDPQARARGAVWTLPHPLLGALPTLANPLRFLSRTPAGPGLPPPLLGEHTREVLLEAGYTPEAVADLVQRGIAKEAPPASQRRPDRGA	soluble
MKPLSSPLQQYWQTIVERLPEPLAEESLSAQAKSVLTFSDFVQDSISAHPEWLTELESQPPQADEWQHYVAWLQEALINVSDEAGLMRELRLFRRRIMVRIAWAQTLALVTEESILQQLSYLAETLIVAARDWLYDACCREWGTPCNAQGEAQPLLILGMGKLGGGELNFSSDIDLIFAWPEHGCTQGGRWELDNAQFFTRMGQRLIKVLDQPTQDGFVYRVDMRLRPFGESGPLVLSFAALEDYYQEQGRDWERYAMVKARIMGDSEGVYANELRAMLRPFVFRRYIDFSVIQSLRNMKGMIAREVRRRGLTDNIKLGAGGIREIEFIVQVFQLIRGGREPSLQSRSLLPTLSVIAALHLLSENDAEQLRVAYLFLRRLENLLQSINDEQTQTLPSDELNRARLAWAMDFADWPQLTGALTAHMTNVRRVFNELIGDDESETQEESLSEQWRELWQDALQEDDTTPVLAHLSEDDRKQVLTLIADFRKELDKRTIGPRGRQVLDHLMPHLLSDVCAREDAAVTLLRITALLAGIVTRTTYLELLSEFPAALKHLISLCAASPMIASQLARYPLLLDELLDPNTLYQPTATDAYRDELRQYLLRVPEDDEEQQLEALRQFKQAQLLRIAAADIAGTLPVMKVSDHLTWLAEAMIDAVVQQAWVQMVARYGKPNHLNEREGRGFAVVGYGKLGGWELGYSSDLDLIFLHDCPMDAMTDGEREIDGRQFYLRLAQRIMHLFSTRTSSGILYEVDARLRPSGAAGMLVTSTEAFADYQKNEAWTWEHQALVRARVVYGDPQLTAHFDAVRREIMTLPREGKTLQTEVREMREKMRAHLGNKHRDRFDIKADEGGITDIEFITQYLVLRYAHEKPKLTRWSDNVRILELLAQNDIMEEQEAMALTRAYTTLRDELHHLALQELPGHVPEDCFTAERELVRASWQKWLVEE	not soluble
MKPNPPINELVLLQAHQLAERIRLRQVSCREVMQAYLAHIERFNPRVNALVSLLPAERLLEEADARDGELARGEWRGWMHGLPHAIKDLSLTRGIRTTLGSPLYRDYIPERDGIMVERIRAAGAILIGKTNTPEFGLGSQTYNPLFGATACAYDERLSAGGSSGGAAAALALHLVPVADGSDMMGSLRNPAAFNNVIGFRPSQGRVPFDDSADLFFDQLGYEGPMGRSVRDTALLLSVQAGADRRAPLSIAEPGARFAAPLERDFEGTRLGWLGDLDGYLPMQDGILQMCQRALGDFRSLGCEIEEANLGFAPERLWECWRTLRHWLVAGSLGGVHADPAKRALLKPEALWEVENGLRLGADAVFRASVIRSDWYRAIGRLFERYDYLLLPSAQVFPFAKETPWPRSIEGVAMDTYHRWMEVVVPGSLSGCPVANVQAGFNAEGLPMGLQIIGPHQADFAVLQLAHAYERASRWFERQPSPLLAN	not soluble
MKPRNINNSLPLQPLVPDQENKNKKNEEKSVNPVKITMGSGLNYIEQESLGGKYLTHDLSIKIADISEEIIQQAILSAMSIYKFSITDDLMSMAVNELIKLTKIENNVDLNKFTTICTDVLSPRVTRHNKEKNKRHSTLLKNPLFNFH	not soluble
MKPRNINNSLPLQPLVPDQENKNKKNEEKSVNPVKITMGSGLNYIEQESLGGKYLTHDLSIKIADISEEIIQQAILSAMSIYKFSITDDLMSMAVNELIKLTKIENNVDLNKFTTICTDVLSPRVTRHNKEKNKRHSTLLKNPLFNFHLEHHHHHH	soluble
